According to patent US20240343771A1 (Chugai, published 2024):

T1: human IL-12 (human, UniProt P29460 23-328; P29459 23-219)
T1 construct: also called Interleukin-12
T1 sequence 1: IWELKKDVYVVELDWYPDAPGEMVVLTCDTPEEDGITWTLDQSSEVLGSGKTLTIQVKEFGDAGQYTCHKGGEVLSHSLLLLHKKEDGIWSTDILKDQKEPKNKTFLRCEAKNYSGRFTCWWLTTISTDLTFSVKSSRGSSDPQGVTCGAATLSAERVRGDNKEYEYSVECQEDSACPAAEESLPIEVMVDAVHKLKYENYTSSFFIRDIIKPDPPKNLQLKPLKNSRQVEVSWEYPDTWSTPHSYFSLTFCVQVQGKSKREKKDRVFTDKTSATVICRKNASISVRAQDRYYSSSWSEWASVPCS
T1 sequence 2: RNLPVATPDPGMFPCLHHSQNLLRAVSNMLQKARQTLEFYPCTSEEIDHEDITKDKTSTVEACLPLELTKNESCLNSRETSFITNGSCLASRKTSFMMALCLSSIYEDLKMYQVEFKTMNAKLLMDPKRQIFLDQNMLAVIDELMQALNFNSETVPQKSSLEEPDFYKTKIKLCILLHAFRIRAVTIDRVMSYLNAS


What follows are binders tested against T1, human IL-12 (assay: SPR (Biacore T200), 37 C, pH 7.4; captured antibody, IL-12 analyte).
Protocol: The affinity of anti-IL-12 antibodies binding to human IL-12 at pH 7.4 were determined at 37 degrees C. using Biacore T200 instrument (Cytiva). Anti-human Fc antibody (Cytiva) was immobilized onto all flow cells (FCs) of a CM4 sensor chip using amine coupling kit (Cytiva). All antibodies and analytes were prepared in ACES pH 7.4 containing 20 mM ACES, 150 mM NaCl, 0.05% Tween 20, 0.005% NaN₃. Each antibody was captured onto the sensor surface by anti-human Fc antibody. Antibody capture levels were aimed at 50 response unit (RU). 5 nM of human IL-12 were injected as analyte, followed by dissociation. Sensor surface was regenerated each cycle with 3M MgCl₂. […] Based on the results in Table 9, it is observed that binding kinetics of anti-IL-12 antibody AbI variants towards IL-12 were not drastically changed compared to control (−/−).

Row | Kd | Binder
1 | 1.49 nM | Anti-IL-12 antibody Ab1 variant V37S VH/A43Q, Y49A VL (antibody, name in Kabat numbering, Ab1 with VH/VL interface substitutions; Kabat numbering) heavy: not shown light: DIVMTQSPLSLPVTPGEPASISCRASQSISINLHWYQQKPGQQPRLLIAFASQSISGVPSRFSGSGSGTDFTLTISSLQPEDFATYYCQQSNSFPLTFGQGTKVEIKRTVAAPSVFIFPPSDEQLKSGTASVVCLLNNFYPREAKVQWKVDNALQSGNSQESVTEQDSKDSTYSLSSTLTLSKADYEKHKVYACEVTHQGLSSPVTKSFNRGEC
2 | 0.549 nM | Anti-IL-12 antibody Ab1 variant W103L VH/- (antibody, name in Kabat numbering, Ab1 with VH/VL interface substitutions; Kabat numbering) heavy: not shown light: DIVMTQSPLSLPVTPGEPASISCRASQSISINLHWYQQKPGQAPRLLIYFASQSISGVPSRFSGSGSGTDFTLTISSLQPEDFATYYCQQSNSFPLTFGQGTKVEIKRTVAAPSVFIFPPSDEQLKSGTASVVCLLNNFYPREAKVQWKVDNALQSGNSQESVTEQDSKDSTYSLSSTLTLSKADYEKHKVYACEVTHQGLSSPVTKSFNRGEC
3 | 3.04 nM | Anti-IL-12 antibody Ab1 variant V37S VH/Y49A, Y87L VL (antibody, name in Kabat numbering, V domains shown, Ab1 with VH/VL interface substitutions; Kabat numbering) VH: QVQLVQSGAEVKKPGSSVKVSCKASGGTFSDYYLHWSRQAPGQGLEWMGWIDPENGDTEYAPKFQGRVTITADESTSTAYMELSSLRSEDTAVYYCARNKELRYFDVWGQGTLVTVSS VL: DIVMTQSPLSLPVTPGEPASISCRASQSISINLHWYQQKPGQAPRLLIAFASQSISGVPSRFSGSGSGTDFTLTISSLQPEDFATYLCQQSNSFPLTFGQGTKVEIKR
4 | 1.6 nM | Anti-IL-12 antibody Ab1 variant W103I VH/A43Q, Y49A VL (antibody, name in Kabat numbering, Ab1 with VH/VL interface substitutions; Kabat numbering) heavy: not shown light: DIVMTQSPLSLPVTPGEPASISCRASQSISINLHWYQQKPGQQPRLLIAFASQSISGVPSRFSGSGSGTDFTLTISSLQPEDFATYYCQQSNSFPLTFGQGTKVEIKRTVAAPSVFIFPPSDEQLKSGTASVVCLLNNFYPREAKVQWKVDNALQSGNSQESVTEQDSKDSTYSLSSTLTLSKADYEKHKVYACEVTHQGLSSPVTKSFNRGEC
5 | 4.86 nM | Anti-IL-12 antibody Ab1 variant W103I VH/L46Q, Y49A VL (antibody, name in Kabat numbering, Ab1 with VH/VL interface substitutions; Kabat numbering) heavy: not shown light: DIVMTQSPLSLPVTPGEPASISCRASQSISINLHWYQQKPGQAPRQLIAFASQSISGVPSRFSGSGSGTDFTLTISSLQPEDFATYYCQQSNSFPLTFGQGTKVEIKRTVAAPSVFIFPPSDEQLKSGTASVVCLLNNFYPREAKVQWKVDNALQSGNSQESVTEQDSKDSTYSLSSTLTLSKADYEKHKVYACEVTHQGLSSPVTKSFNRGEC
6 | 3.87 nM | Anti-IL-12 antibody Ab1 variant V37S VH/L46Q, Y49A, Y87M VL (antibody, name in Kabat numbering, V domains shown, Ab1 with VH/VL interface substitutions; Kabat numbering) VH: QVQLVQSGAEVKKPGSSVKVSCKASGGTFSDYYLHWSRQAPGQGLEWMGWIDPENGDTEYAPKFQGRVTITADESTSTAYMELSSLRSEDTAVYYCARNKELRYFDVWGQGTLVTVSS VL: DIVMTQSPLSLPVTPGEPASISCRASQSISINLHWYQQKPGQAPRQLIAFASQSISGVPSRFSGSGSGTDFTLTISSLQPEDFATYMCQQSNSFPLTFGQGTKVEIKR
7 | 2.92 nM | Anti-IL-12 antibody Ab1 variant V37S, L45Q VH/Y49A, Y87M VL (antibody, name in Kabat numbering, V domains shown, Ab1 with VH/VL interface substitutions; Kabat numbering) VH: QVQLVQSGAEVKKPGSSVKVSCKASGGTFSDYYLHWSRQAPGQGQEWMGWIDPENGDTEYAPKFQGRVTITADESTSTAYMELSSLRSEDTAVYYCARNKELRYFDVWGQGTLVTVSS VL: DIVMTQSPLSLPVTPGEPASISCRASQSISINLHWYQQKPGQAPRLLIAFASQSISGVPSRFSGSGSGTDFTLTISSLQPEDFATYMCQQSNSFPLTFGQGTKVEIKR
8 | 2.96 nM | Anti-IL-12 antibody Ab1 variant V37S VH/P44A, Y49A VL (antibody, name in Kabat numbering, V domains shown, Ab1 with VH/VL interface substitutions; Kabat numbering) VH: QVQLVQSGAEVKKPGSSVKVSCKASGGTFSDYYLHWSRQAPGQGLEWMGWIDPENGDTEYAPKFQGRVTITADESTSTAYMELSSLRSEDTAVYYCARNKELRYFDVWGQGTLVTVSS VL: DIVMTQSPLSLPVTPGEPASISCRASQSISINLHWYQQKPGQAARLLIAFASQSISGVPSRFSGSGSGTDFTLTISSLQPEDFATYYCQQSNSFPLTFGQGTKVEIKR
9 | 3.06 nM | Anti-IL-12 antibody Ab1 variant V37S VH/L46Q, Y49A VL (antibody, name in Kabat numbering, V domains shown, Ab1 with VH/VL interface substitutions; Kabat numbering) VH: QVQLVQSGAEVKKPGSSVKVSCKASGGTFSDYYLHWSRQAPGQGLEWMGWIDPENGDTEYAPKFQGRVTITADESTSTAYMELSSLRSEDTAVYYCARNKELRYFDVWGQGTLVTVSS VL: DIVMTQSPLSLPVTPGEPASISCRASQSISINLHWYQQKPGQAPRQLIAFASQSISGVPSRFSGSGSGTDFTLTISSLQPEDFATYYCQQSNSFPLTFGQGTKVEIKR
10 | 1.12 nM | Anti-IL-12 antibody Ab1 variant W103L VH/A43Q, Y49A VL (antibody, name in Kabat numbering, Ab1 with VH/VL interface substitutions; Kabat numbering) heavy: not shown light: DIVMTQSPLSLPVTPGEPASISCRASQSISINLHWYQQKPGQQPRLLIAFASQSISGVPSRFSGSGSGTDFTLTISSLQPEDFATYYCQQSNSFPLTFGQGTKVEIKRTVAAPSVFIFPPSDEQLKSGTASVVCLLNNFYPREAKVQWKVDNALQSGNSQESVTEQDSKDSTYSLSSTLTLSKADYEKHKVYACEVTHQGLSSPVTKSFNRGEC
11 | 0.828 nM | Anti-IL-12 antibody Ab1 variant V37S, W103M VH/A43Q, Y49A VL (antibody, name in Kabat numbering, Ab1 with VH/VL interface substitutions; Kabat numbering) heavy: not shown light: DIVMTQSPLSLPVTPGEPASISCRASQSISINLHWYQQKPGQQPRLLIAFASQSISGVPSRFSGSGSGTDFTLTISSLQPEDFATYYCQQSNSFPLTFGQGTKVEIKRTVAAPSVFIFPPSDEQLKSGTASVVCLLNNFYPREAKVQWKVDNALQSGNSQESVTEQDSKDSTYSLSSTLTLSKADYEKHKVYACEVTHQGLSSPVTKSFNRGEC
12 | 1.79 nM | Anti-IL-12 antibody Ab1 variant V37S, Y91M VH/A43Q, Y49A VL (antibody, name in Kabat numbering, V domains shown, Ab1 with VH/VL interface substitutions; Kabat numbering) VH: QVQLVQSGAEVKKPGSSVKVSCKASGGTFSDYYLHWSRQAPGQGLEWMGWIDPENGDTEYAPKFQGRVTITADESTSTAYMELSSLRSEDTAVYMCARNKELRYFDVWGQGTLVTVSS VL: DIVMTQSPLSLPVTPGEPASISCRASQSISINLHWYQQKPGQQPRLLIAFASQSISGVPSRFSGSGSGTDFTLTISSLQPEDFATYYCQQSNSFPLTFGQGTKVEIKR
13 | 1.57 nM | Anti-IL-12 antibody Ab1 variant W103I VH/P44A, Y49A VL (antibody, name in Kabat numbering, Ab1 with VH/VL interface substitutions; Kabat numbering) heavy: not shown light: DIVMTQSPLSLPVTPGEPASISCRASQSISINLHWYQQKPGQAARLLIAFASQSISGVPSRFSGSGSGTDFTLTISSLQPEDFATYYCQQSNSFPLTFGQGTKVEIKRTVAAPSVFIFPPSDEQLKSGTASVVCLLNNFYPREAKVQWKVDNALQSGNSQESVTEQDSKDSTYSLSSTLTLSKADYEKHKVYACEVTHQGLSSPVTKSFNRGEC
14 | 1.12 nM | Anti-IL-12 antibody Ab1 variant V37S, F100aI VH/A43Q, Y49A VL (antibody, name in Kabat numbering, V domains shown, Ab1 with VH/VL interface substitutions; Kabat numbering) VH: QVQLVQSGAEVKKPGSSVKVSCKASGGTFSDYYLHWSRQAPGQGLEWMGWIDPENGDTEYAPKFQGRVTITADESTSTAYMELSSLRSEDTAVYYCARNKELRYIDVWGQGTLVTVSS VL: DIVMTQSPLSLPVTPGEPASISCRASQSISINLHWYQQKPGQQPRLLIAFASQSISGVPSRFSGSGSGTDFTLTISSLQPEDFATYYCQQSNSFPLTFGQGTKVEIKR
15 | 3.44 nM | Anti-IL-12 antibody Ab1 variant V37S, Y91M VH/L46Q, Y49A VL (antibody, name in Kabat numbering, V domains shown, Ab1 with VH/VL interface substitutions; Kabat numbering) VH: QVQLVQSGAEVKKPGSSVKVSCKASGGTFSDYYLHWSRQAPGQGLEWMGWIDPENGDTEYAPKFQGRVTITADESTSTAYMELSSLRSEDTAVYMCARNKELRYFDVWGQGTLVTVSS VL: DIVMTQSPLSLPVTPGEPASISCRASQSISINLHWYQQKPGQAPRQLIAFASQSISGVPSRFSGSGSGTDFTLTISSLQPEDFATYYCQQSNSFPLTFGQGTKVEIKR
16 | 0.331 nM | Anti-IL-12 antibody Ab1 variant W103A VH/- (antibody, name in Kabat numbering, Ab1 with VH/VL interface substitutions; Kabat numbering) heavy: not shown light: DIVMTQSPLSLPVTPGEPASISCRASQSISINLHWYQQKPGQAPRLLIYFASQSISGVPSRFSGSGSGTDFTLTISSLQPEDFATYYCQQSNSFPLTFGQGTKVEIKRTVAAPSVFIFPPSDEQLKSGTASVVCLLNNFYPREAKVQWKVDNALQSGNSQESVTEQDSKDSTYSLSSTLTLSKADYEKHKVYACEVTHQGLSSPVTKSFNRGEC
17 | 3.13 nM | Anti-IL-12 antibody Ab1 variant V37S, L45Q VH/A43Q, Y49A VL (antibody, name in Kabat numbering, V domains shown, Ab1 with VH/VL interface substitutions; Kabat numbering) VH: QVQLVQSGAEVKKPGSSVKVSCKASGGTFSDYYLHWSRQAPGQGQEWMGWIDPENGDTEYAPKFQGRVTITADESTSTAYMELSSLRSEDTAVYYCARNKELRYFDVWGQGTLVTVSS VL: DIVMTQSPLSLPVTPGEPASISCRASQSISINLHWYQQKPGQQPRLLIAFASQSISGVPSRFSGSGSGTDFTLTISSLQPEDFATYYCQQSNSFPLTFGQGTKVEIKR
18 | 0.982 nM | Anti-IL-12 antibody Ab1 variant V37S VH/Y49A, F98L VL (antibody, name in Kabat numbering, V domains shown, Ab1 with VH/VL interface substitutions; Kabat numbering) VH: QVQLVQSGAEVKKPGSSVKVSCKASGGTFSDYYLHWSRQAPGQGLEWMGWIDPENGDTEYAPKFQGRVTITADESTSTAYMELSSLRSEDTAVYYCARNKELRYFDVWGQGTLVTVSS VL: DIVMTQSPLSLPVTPGEPASISCRASQSISINLHWYQQKPGQAPRLLIAFASQSISGVPSRFSGSGSGTDFTLTISSLQPEDFATYYCQQSNSFPLTLGQGTKVEIKR
19 | 2.98 nM | Anti-IL-12 antibody Ab1 variant V37S, F100aI VH/L46Q, Y49A VL (antibody, name in Kabat numbering, V domains shown, Ab1 with VH/VL interface substitutions; Kabat numbering) VH: QVQLVQSGAEVKKPGSSVKVSCKASGGTFSDYYLHWSRQAPGQGLEWMGWIDPENGDTEYAPKFQGRVTITADESTSTAYMELSSLRSEDTAVYYCARNKELRYIDVWGQGTLVTVSS VL: DIVMTQSPLSLPVTPGEPASISCRASQSISINLHWYQQKPGQAPRQLIAFASQSISGVPSRFSGSGSGTDFTLTISSLQPEDFATYYCQQSNSFPLTFGQGTKVEIKR
